Laboratory results as given in paper PMC10405735 (Frontiers in Immunology, 2023).

B1: murine GPR182 (mGPR182), expressed from mGPR182 T2A GFP in 300.19 pre-B cells (receptor, mouse, UniProt P43142 1-398, looked up)
chain: MSVIPSPRPVSTLEPDNDFRDIHNWTELLHLFNQTFTDCHIEFNENTKHVVLFVFYLAIFVVGLVENVLVICVNCRRSGRVGMLNLYILNMAIADLGIILSLPVWMLEVMLEYTWLWGSFSCRFIHYFYLVNMYSSIFFLTCLSIDRYVTLTNTSPSWQRHQHRIRRAVCAGVWVLSAIIPLPEVVHIQLLDGSEPMCLFLAPFETYSAWALAVALSATILGFLLPFLLIAVFNILTACRLRRQRQTESRRHCLLMWAYIVVFAICWLPYQVTMLLLTLHGTHIFLHCHLVNLLYFFYEIIDCFSMLHCVANPILYNFLSPSFRGRLLSLVVRYLPKEQARAAGGRASSSSSTQHSIIITKEGSLPAAADLHTHPIRNVQASSPPPNTSPTLCNSVAS
notes: GPR182, mouse; Expressed fused via a self-cleaving T2A peptide to GFP (backbone pME-Cas9-T2A-GFP, Addgene 63155); receptor and GFP are split post-translationally; also called ACKR5 (proposed); source: 300.19 mouse pre-B cells, stably transfected, on cells

What was measured:
Conditions in all cases: one partner purified
hCXCL12, unlabeled = biological target: T1, hCXCL12, unlabeled (human, UniProt P48061 22-93); assay: flow cytometry on cells; competition binding at 4°C: 300.19 cells expressing mGPR182 or hGPR182 with 3 nM fluorescent chemokine and increasing concentrations of its unlabeled counterpart, 45 min
T1 construct: CXCL12, human; also called X12

[1] = biological target: T2, human GPR182 (hGPR182), expressed from hGPR182 T2A GFP in 300.19 pre-B cells (human, UniProt O15218 1-404); assay: as above
T2 construct: GPR182, human; Expressed fused via a self-cleaving T2A peptide to GFP (backbone pME-Cas9-T2A-GFP, Addgene 63155); split post-translationally; also called ACKR5 (proposed); source: 300.19 mouse pre-B cells, stably transfected, on cells

[2] = biological target: T2, human GPR182 (hGPR182), expressed from …; assay: flow cytometry on cells; competition scavenging at 37°C: 300.19 cells expressing mGPR182 or hGPR182 with 3 nM fluorescent chemokine and increasing concentrations of its unlabeled counterpart, 45 min
[3] = biological target: B1; assay: flow cytometry on cells; direct binding: 300.19 cells expressing GPR182 T2A GFP with increasing concentrations of fluorescently labelled chemokine, 45 min; temperature not stated for this experiment
[4] = biological target: B1; assay: flow cytometry on cells; competition binding at 4°C: 300.19 cells expressing mGPR182 or hGPR182 with 3 nM fluorescent chemokine and increasing concentrations of its unlabeled counterpart, 45 min
[5] = biological target: B1; assay: flow cytometry on cells; competition scavenging at 37°C: 300.19 cells expressing mGPR182 or hGPR182 with 3 nM fluorescent chemokine and increasing concentrations of its unlabeled counterpart, 45 min

Kd (hCXCL12, unlabeled) [nM]	Kd [1] [nM]	Kd (competition scavenging) [2] [nM]	Kd [3] [nM]	Kd [4] [nM]	Kd (competition scavenging) [5] [nM]	Binder
120						B1
	55	75				hCCL19, unlabeled (ligand, human, UniProt Q99731 22-98, looked up, CCL19, human) GTNDAEDCCLSVTQKPIPGYIVRNFHYLLIKDGCRVPAVVFTTLRGRQLCAPPDQPWVERIIQRLQRTSAKMKRRSS
			~8.5			mCCL28, fluorescently labelled (ligand, mouse, UniProt Q9JIL2 17-130, looked up, fluorescent label (AF647 or Dy649), site not stated, CCL28, mouse; also called CCL28-AF647; mCCL28-AF647) FQTSEAILPMASSCCTEVSHHVSGRLLERVSSCSIQRADGDCDLAAVILHVKRRRICISPHNRTLKQWMRASEVKKNGRENVCSGKKQPSRKDRKGHTTRKHRTRGTHRHEASR
	28	52		10	14	mCCL28, unlabeled (ligand, mouse, UniProt Q9JIL2 17-130, looked up, CCL28, mouse) FQTSEAILPMASSCCTEVSHHVSGRLLERVSSCSIQRADGDCDLAAVILHVKRRRICISPHNRTLKQWMRASEVKKNGRENVCSGKKQPSRKDRKGHTTRKHRTRGTHRHEASR
	20	9		20	13	hCXCL13, unlabeled (ligand, human, UniProt O43927 23-109, looked up, CXCL13, human) VLEVYYTSLRCRCVQESSVFIPRRFIDRIQILPRGNGCPRKEIIVWKKNKSIVCVDPQAEWIQRMMEVLRKRSSSTLPVPVFKRKIP
				180	250	mCCL19, unlabeled (ligand, mouse, UniProt O70460 26-108, looked up, CCL19, mouse) GANDAEDCCLSVTQRPIPGNIVKAFRYLLNEDGCRVPAVVFTTLRGYQLCAPPDQPWVDRIIRRLKKSSAKNKGNSTRRSPVS
				120		mCCL20, unlabeled (ligand, mouse, UniProt O89093 28-97, looked up, CCL20, mouse) ASNYDCCLSYIQTPLPSRAIVGFTRQMADEACDINAIIFHTKKRKSVCADPKQNWVKRAVNLLSLRVKKM
